The results in this text go back to patent US20260167699A1 (Chugai, published 2026).

B1: GpH7-A5/GpH7-B3 variant N325_13S/GpL16-k0 (antibody, human IgG1, kappa)
heavy 1: not shown
heavy 2: not shown
light: DIVMTQSPLSLPVTPGEPASISCQASESLVHSNRNTYLHWYLQKPGQSPQLLIYKVSNRFSGVPDRFSGSGSGTDFTLKISRVEAEDVGVYYCSQNTHVPPTFGQGTKVEIERTVAAPSVFIFPPSDEQLKSGTASVVCLLNNFYPREAKVQWKVDNALQSGNSQESVTEQDSKDSTYSLSSTLTLSKADYEKHKVYACEVTHQGLSSPVTKSFNRGEC
notes: copies: 1 + 1 + 2
B2: GpH7-A5/GpH7-B3 variant L328_02A/GpL16-k0 (antibody, human IgG1, kappa)
heavy 1: not shown
heavy 2: not shown
light: B1 light
notes: copies: 1 + 1 + 2
B3: GpH7-A5/GpH7-B3 variant L235_10E/GpL16-k0 (antibody, human IgG1, kappa)
heavy 1: not shown
heavy 2: not shown
light: B1 light
notes: copies: 1 + 1 + 2
B4: GpH7-A5/GpH7-B3 variant L235_15Y/GpL16-k0 (antibody, human IgG1, kappa)
heavy 1: not shown
heavy 2: not shown
light: B1 light
notes: copies: 1 + 1 + 2
B5: GpH7-A5/GpH7-B3 variant L235_09D/GpL16-k0 (antibody, human IgG1, kappa)
heavy 1: not shown
heavy 2: not shown
light: B1 light
notes: copies: 1 + 1 + 2
B6: GpH7-A5/GpH7-B3 variant L328_03V/GpL16-k0 (antibody, human IgG1, kappa)
heavy 1: not shown
heavy 2: not shown
light: B1 light
notes: copies: 1 + 1 + 2
B7: GpH7-A5/GpH7-B3 variant K334_19Q/GpL16-k0 (antibody, human IgG1, kappa)
heavy 1: not shown
heavy 2: not shown
light: B1 light
notes: copies: 1 + 1 + 2
B8: GpH7-A5/GpH7-B3 variant L234_04F/GpL16-k0 (antibody, human IgG1, kappa)
heavy 1: not shown
heavy 2: not shown
light: B1 light
notes: copies: 1 + 1 + 2
B9: GpH7-A5/GpH7-B3 variant L235_03V/GpL16-k0 (antibody, human IgG1, kappa)
heavy 1: not shown
heavy 2: not shown
light: B1 light
notes: copies: 1 + 1 + 2
B10: GpH7-A5/GpH7-B3 variant L235_02A/GpL16-k0 (antibody, human IgG1, kappa)
heavy 1: not shown
heavy 2: not shown
light: B1 light
notes: copies: 1 + 1 + 2
B11: GpH7-A5/GpH7-B3 variant L234_09D/GpL16-k0 (antibody, human IgG1, kappa)
heavy 1: not shown
heavy 2: not shown
light: B1 light
notes: copies: 1 + 1 + 2
B12: GpH7-A5/GpH7-B3 variant L234_06M/GpL16-k0 (antibody, human IgG1, kappa)
heavy 1: not shown
heavy 2: not shown
light: B1 light
notes: copies: 1 + 1 + 2
B13: GpH7-A5/GpH7-B3 variant P238_10E/GpL16-k0 (antibody, human IgG1, kappa)
heavy 1: not shown
heavy 2: not shown
light: B1 light
notes: copies: 1 + 1 + 2
B14: GpH7-A5/GpH7-B3 variant L328_06M/GpL16-k0 (antibody, human IgG1, kappa)
heavy 1: not shown
heavy 2: not shown
light: B1 light
notes: copies: 1 + 1 + 2
B15: GpH7-A5/GpH7-B3 variant P238_19Q/GpL16-k0 (antibody, human IgG1, kappa)
heavy 1: not shown
heavy 2: not shown
light: B1 light
notes: copies: 1 + 1 + 2
B16: GpH7-A5/GpH7-B3 variant L328_13S/GpL16-k0 (antibody, human IgG1, kappa)
heavy 1: not shown
heavy 2: not shown
light: B1 light
notes: copies: 1 + 1 + 2
B17: GpH7-A5/GpH7-B3 variant N325_09D/GpL16-k0 (antibody, human IgG1, kappa)
heavy 1: not shown
heavy 2: not shown
light: B1 light
notes: copies: 1 + 1 + 2
B18: GpH7-A5/GpH7-B3 variant L234_05P/GpL16-k0 (antibody, human IgG1, kappa)
heavy 1: not shown
heavy 2: not shown
light: B1 light
notes: copies: 1 + 1 + 2
B19: GpH7-A5/GpH7-B3 variant L234_10E/GpL16-k0 (antibody, human IgG1, kappa)
heavy 1: not shown
heavy 2: not shown
light: B1 light
notes: copies: 1 + 1 + 2
B20: GpH7-A5/GpH7-B3 variant L328_14T/GpL16-k0 (antibody, human IgG1, kappa)
heavy 1: not shown
heavy 2: not shown
light: B1 light
notes: copies: 1 + 1 + 2
B21: GpH7-A5/GpH7-B3 variant L234_14T/GpL16-k0 (antibody, human IgG1, kappa)
heavy 1: not shown
heavy 2: not shown
light: B1 light
notes: copies: 1 + 1 + 2
B22: GpH7-A5/GpH7-B3 variant L328_07I/GpL16-k0 (antibody, human IgG1, kappa)
heavy 1: not shown
heavy 2: not shown
light: B1 light
notes: copies: 1 + 1 + 2
B23: GpH7-A5/GpH7-B3 variant L235_01G/GpL16-k0 (antibody, human IgG1, kappa)
heavy 1: not shown
heavy 2: not shown
light: B1 light
notes: copies: 1 + 1 + 2
B24: GpH7-A5/GpH7-B3 variant L235_20W/GpL16-k0 (antibody, human IgG1, kappa)
heavy 1: not shown
heavy 2: not shown
light: B1 light
notes: copies: 1 + 1 + 2
B25: GpH7-A5/GpH7-B3 variant P238_08L/GpL16-k0 (antibody, human IgG1, kappa)
heavy 1: not shown
heavy 2: not shown
light: B1 light
notes: copies: 1 + 1 + 2
B26: GpH7-A5/GpH7-B3 variant L235_19Q/GpL16-k0 (antibody, human IgG1, kappa)
heavy 1: not shown
heavy 2: not shown
light: B1 light
notes: copies: 1 + 1 + 2
B27: GpH7-A5/GpH7-B3 variant L328_18N/GpL16-k0 (antibody, human IgG1, kappa)
heavy 1: not shown
heavy 2: not shown
light: B1 light
notes: copies: 1 + 1 + 2
B28: GpH7-A5/GpH7-B3 variant L235_04F/GpL16-k0 (antibody, human IgG1, kappa)
heavy 1: not shown
heavy 2: not shown
light: B1 light
notes: copies: 1 + 1 + 2
B29: GpH7-A5/GpH7-B3 variant L235_13S/GpL16-k0 (antibody, human IgG1, kappa)
heavy 1: not shown
heavy 2: not shown
light: B1 light
notes: copies: 1 + 1 + 2
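Note: antibody variants captured on an SPR sensor chip, with FcγRIIIa passed over as analyte in HBS-EP+ buffer at 25 °C.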

The test deals with T1, FcγRIIIa (human, UniProt P08637 17-208).
T1 construct: extracellular domain; also called 3a; FcγRIIIa extracellular domain
T1 sequence (P08637 other isoform, or with tags, fused parts or gaps): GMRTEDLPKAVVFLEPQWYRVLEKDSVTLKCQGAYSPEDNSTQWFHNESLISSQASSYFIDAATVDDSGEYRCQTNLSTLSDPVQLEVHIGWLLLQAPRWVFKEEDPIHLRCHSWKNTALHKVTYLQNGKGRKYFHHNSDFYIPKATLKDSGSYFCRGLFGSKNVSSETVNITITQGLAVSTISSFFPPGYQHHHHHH
Kind of test: SPR (Biacore). (Surface plasmon resonance follows binding to a sensor surface in real time, without labels.)
Turning to B1, the “He/Con 3a” value is 71.9 % of GpH7-A5/GpH7-B3/GpL16-k0.

On to B2, for which the “He/Con 3a” value was 81.3 % of GpH7-A5/GpH7-B3/GpL16-k0.

B3: the “He/Con 3a” value is 85.6 % of GpH7-A5/GpH7-B3/GpL16-k0.

As for B4, the “He/Con 3a” value was 77.8 % of GpH7-A5/GpH7-B3/GpL16-k0.

As for B5, the “He/Con 3a” value is 88.5 % of GpH7-A5/GpH7-B3/GpL16-k0.

Turning to B6, the “He/Con 3a” value is 80.9 % of GpH7-A5/GpH7-B3/GpL16-k0.

In the case of B7, the “He/Con 3a” value is 140 % of GpH7-A5/GpH7-B3/GpL16-k0.

Turning to B8, the “He/Con 3a” value is 114 % of GpH7-A5/GpH7-B3/GpL16-k0.

In the case of B9, the “He/Con 3a” value was 94.6 % of GpH7-A5/GpH7-B3/GpL16-k0.

On to B10, for which the “He/Con 3a” value is 72 % of GpH7-A5/GpH7-B3/GpL16-k0.

Take B11: the “He/Con 3a” value is 113 % of GpH7-A5/GpH7-B3/GpL16-k0.

For B12, the “He/Con 3a” value was 82.9 % of GpH7-A5/GpH7-B3/GpL16-k0.

In the case of B13, the “He/Con 3a” value was 98.9 % of GpH7-A5/GpH7-B3/GpL16-k0.

Turning to B14, the “He/Con 3a” value was 80.8 % of GpH7-A5/GpH7-B3/GpL16-k0.

For B15, the “He/Con 3a” value is 52.7 % of GpH7-A5/GpH7-B3/GpL16-k0.

With B16, the “He/Con 3a” value is 73.7 % of GpH7-A5/GpH7-B3/GpL16-k0.

Take B17: the “He/Con 3a” value was 53 % of GpH7-A5/GpH7-B3/GpL16-k0.

On to B18, for which the “He/Con 3a” value was 85.1 % of GpH7-A5/GpH7-B3/GpL16-k0.

For B19, the “He/Con 3a” value is 111 % of GpH7-A5/GpH7-B3/GpL16-k0.

For the molecule B20, the “He/Con 3a” value was 77.4 % of GpH7-A5/GpH7-B3/GpL16-k0.

B21: the “He/Con 3a” value was 69.8 % of GpH7-A5/GpH7-B3/GpL16-k0.

In the case of B22, the “He/Con 3a” value was 86.4 % of GpH7-A5/GpH7-B3/GpL16-k0.

Take B23: the “He/Con 3a” value is 56.7 % of GpH7-A5/GpH7-B3/GpL16-k0.

Take B24: the “He/Con 3a” value is 73.8 % of GpH7-A5/GpH7-B3/GpL16-k0.

As for B25, the “He/Con 3a” value was 71.3 % of GpH7-A5/GpH7-B3/GpL16-k0.

With B26, the “He/Con 3a” value was 68.1 % of GpH7-A5/GpH7-B3/GpL16-k0.

On to B27, for which the “He/Con 3a” value was 51.1 % of GpH7-A5/GpH7-B3/GpL16-k0.

With B28, the “He/Con 3a” value was 76.4 % of GpH7-A5/GpH7-B3/GpL16-k0.

In the case of B29, the “He/Con 3a” value is 67.2 % of GpH7-A5/GpH7-B3/GpL16-k0.
